Like-named read-outs stand apart in the source and are kept apart here. Bridges are numbered along the chain shown (N, C = ends). [ ]: non-standard residue; d: D form. Pen = CC(C)(S)[C@H](N)C(=O)O; hLeu = CC(C)CC[C@H](N)C(=O)O; Aib = CC(C)(N)C(=O)O
T1: Rat IL-23R_huFC (rat, UniProt F1LX96 39-369)
T1 sequence: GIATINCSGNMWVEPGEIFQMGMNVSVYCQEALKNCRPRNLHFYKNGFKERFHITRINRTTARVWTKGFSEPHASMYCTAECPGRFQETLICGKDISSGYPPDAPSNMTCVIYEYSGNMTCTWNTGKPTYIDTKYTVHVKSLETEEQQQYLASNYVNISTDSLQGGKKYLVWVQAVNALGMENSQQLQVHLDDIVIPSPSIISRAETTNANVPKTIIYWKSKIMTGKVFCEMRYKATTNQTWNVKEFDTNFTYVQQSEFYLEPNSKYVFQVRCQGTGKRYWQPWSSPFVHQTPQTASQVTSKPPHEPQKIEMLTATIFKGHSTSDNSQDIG

T2: IL23R_huFC (human, UniProt Q5VWK5 24-353)
T2 sequence (looked up): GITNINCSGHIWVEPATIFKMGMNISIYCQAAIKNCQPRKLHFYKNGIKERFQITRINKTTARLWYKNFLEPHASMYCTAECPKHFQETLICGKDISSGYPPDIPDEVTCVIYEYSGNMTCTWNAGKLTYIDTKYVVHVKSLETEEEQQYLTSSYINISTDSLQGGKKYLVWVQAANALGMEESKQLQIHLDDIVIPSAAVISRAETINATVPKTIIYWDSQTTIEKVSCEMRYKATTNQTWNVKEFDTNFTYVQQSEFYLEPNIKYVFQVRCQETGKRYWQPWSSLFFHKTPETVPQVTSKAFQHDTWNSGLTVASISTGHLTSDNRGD


Tests used:
Rat IL-23R_huFC [1] = biological target: T1, Rat IL-23R_huFC; test: rat IL-23R competitive binding ELISA
IL23R_huFC = biological target: T2, IL23R_huFC; test: IL23-IL23R competitive binding ELISA
Rat IL-23R_huFC [2] = biological target: T1, Rat IL-23R_huFC; test: rat IL-23R competitive binding ELISA; remark: listed apart in the source

Binder	IC50 (Rat IL-23R_huFC [1])	IC50 (IL23R_huFC)	IC50 (Rat IL-23R_huFC [2])
Ac-CSTWECYWHTYG-NH2 (disulfide 1-6) [Ac-CSTWECYWHTYG-NH2]	286 nM		
CQTWQCYWXENG (Ac; 3-Pal; NH2) [Ac-CQTWQCYW-[3-Pal]-ENG-NH2]	20 nM		
Ac-CQTWQCYW[hLeu]EEG-NH2 (disulfide 1-6 (inferred)) [Ac-CQTWQCYW-[hLeu]-EEG-NH2]	53 nM		
Ac-CQTWQCYW[hLeu]ENE-NH2 (disulfide 1-6 (inferred)) [Ac-CQTWQCYW-[hLeu]-ENE-NH2]	1000 nM		
Ac-CRTWQCYWSEFGTGE-NH2 (disulfide 1-6; SMILES CC(=O)N[C@H]1CSSC[C@@H](C(=O)N[C@@H](Cc2ccc(O)cc2)C(=O)N[C@@H](Cc2c[nH]c3ccccc23)C(=O)N[C@@H](CO)C(=O)N[C@@H](CCC(=O)O)C(=O)N[C@@H](Cc2ccccc2)C(=O)NCC(=O)N[C@H](C(=O)NCC(=O)N[C@@H](CCC(=O)O)C(N)=O)[C@@H](C)O)NC(=O)[C@H](CCC(N)=O)NC(=O)[C@H](Cc2c[nH]c3ccccc23)NC(=O)[C@H]([C@@H](C)O)NC(=O)[C@H](CCCNC(=N)N)NC1=O) [Ac-CRTWQCYWSEFGTGE-NH2]	778 nM		
Ac-CRTWQCYWLRLGDEG-NH2 (disulfide 1-6 (inferred)) [Ac-CRTWQCYWLRLGDEG-NH2]	483 nM		
Ac-CSTWQCYWSKQSGGS-NH2 (disulfide 1-6; SMILES CC(=O)N[C@H]1CSSC[C@@H](C(=O)N[C@@H](Cc2ccc(O)cc2)C(=O)N[C@@H](Cc2c[nH]c3ccccc23)C(=O)N[C@@H](CO)C(=O)N[C@@H](CCCCN)C(=O)N[C@@H](CCC(N)=O)C(=O)N[C@@H](CO)C(=O)NCC(=O)NCC(=O)N[C@@H](CO)C(N)=O)NC(=O)[C@H](CCC(N)=O)NC(=O)[C@H](Cc2c[nH]c3ccccc23)NC(=O)[C@H]([C@@H](C)O)NC(=O)[C@H](CO)NC1=O) [Ac-CSTWQCYWSKQSGGS-NH2]	204 nM		
CQTWQCYWXENG (Ac; α-MeOrn; NH2) [Ac-CQTWQCYW-[α-MeOrn]-ENG-NH2]	64 nM		
Ac-CQTWQCYW[Aib]ENG-NH2 (disulfide 1-6 (inferred)) [Ac-CQTWQCYW-[Aib]-ENG-NH2]	34 nM		
Ac-CQTWQCYW[hLeu]ENGG-NH2 (cysteine pairing not given here) [Ac-CQTWQCYW-[hLeu]-ENGG-NH2]	140 nM		
Ac-FCQTWQCYW[hLeu]ENG-NH2 (cysteine pairing not given here) [Ac-FCQTWQCYW-[hLeu]-ENG-NH2]	25 nM		
Ac-LCQTWQCYW[hLeu]ENG-NH2 (cysteine pairing not given here) [Ac-LCQTWQCYW-[hLeu]-ENG-NH2]	26 nM		
XQTWQXYWLENG (Ac; Pen-Pen disulfide; hLeu; NH2) [Ac-[[Pen]-QTWQ-[Pen]-YW-[hLeu]-ENG-NH2]		100 to 1000 nM	
Ac-[Pen]QTWQ[Pen]YW[dN]ENG-NH2 (disulfide 1-6; SMILES CC(=O)N[C@@H]1C(=O)N[C@@H](CCC(N)=O)C(=O)N[C@@H]([C@@H](C)O)C(=O)N[C@@H](Cc2c[nH]c3ccccc23)C(=O)N[C@@H](CCC(N)=O)C(=O)N[C@H](C(=O)N[C@@H](Cc2ccc(O)cc2)C(=O)N[C@@H](Cc2c[nH]c3ccccc23)C(=O)N[C@H](CC(N)=O)C(=O)N[C@@H](CCC(=O)O)C(=O)N[C@@H](CC(N)=O)C(=O)NCC(N)=O)C(C)(C)SSC1(C)C) [Ac-[Pen]-QTWQ-[Pen]-YW-[(D)Asn]-ENG-NH2]		1000 to 10000 nM	
XQTWQXYWLENG (Ac; Pen-Pen disulfide; hLeu; NH2) [Ac-[Pen]-QTWQ-[Pen]-YW-[hLeu]-ENG-NH2]		100 to 1000 nM	
XQTWQXYWXENG (Ac; Pen-Pen disulfide; α-MeOrn; NH2) [Ac-[Pen]-QTWQ-[Pen]-YW-[α-MeOrn]-ENG-NH2]		100 to 1000 nM	100 to 1000 nM
XQTWQXYWKKNG (Ac; Pen-Pen disulfide; α-MeLys; Lys(Ac); NH2) [Ac-[Pen]-QTWQ-[Pen]-YW-[α-MeLys]-[Lys(Ac)]-NG-NH2]		100 to 1000 nM	
XQTWQXFXKKNG (N-terminal gallic acid; Pen-Pen disulfide; Phe(4-OMe); 2-Nal; α-MeLys; Lys(Ac); NH2) [gallic acid-[Pen]-QTWQ[Pen]-[Phe(4-OMe)]-[2-Nal]-[α-MeLys]-[Lys(Ac)]-NG-NH2]		1000 to 10000 nM	

From patent US20190300590A1 (PROTAGONIST THERAPEUTICS, published 2019)
